Assay results from publication PMC10955041, “Reverse-engineering the anti-MUC1 antibody 139H2 by mass spectrometry–based de novo sequencing” (Life Science Alliance, 2024).
Ends that are not written are not given here. * marks the point of attachment. Biotin = O=C1N[C@H]2[C@H](CS[C@H]2CCCCC(=O)*)N1

T1: synthetic MUC1 epitope peptide APDTRPAPG (synthetic; human MUC1 VNTR sequence)
T1 construct: also called MUC1 peptide; source: synthetic peptide, bought: GenScript
T1 chain: APDTRPAPG

T2: N-terminally biotinylated synthetic MUC1 peptide biotin-GGS-APDTRPAPG (synthetic; human MUC1 VNTR sequence)
T2 construct: short peptide linker for immobilization to the SPR substrate; occurs in every repeat; also called biotinylated MUC1 peptide; surface-immobilized MUC1 peptide; source: synthetic peptide, bought: GenScript
T2 chain: Biotin-GGSAPDTRPAPG

B1: hybridoma-derived 139H2 IgG (antibody, V domains shown)
VH: QVQLQQSGAELVKPGASVKLSCKASGYTFTNYYMYWVLQRPGQGLEWIGEINPSNGGTTFNEKFKNKATLTVDKSSSTAYMQLNSLTSEDSAVYYCTRSRYGNYVNYGMDYWGQGTSVTVSS
VL: DIVMSQSPSSLAVSVGEKVTMSCKSSQSLLYSNTQKNYLAWYQQKPGQSPKLLIYWASTRESGVPDRFTGSGSGTDFTLTISSVKAENLAVYYCQQYYRYPPTFGGGTKLELK
notes: as the heavy-chain variable domain of m1 (IGHV1-53); as the light-chain variable domain of m1 (IGKV8-30); mouse kappa light-chain constant region; Mouse IgG1, kappa; also called original hybridoma-derived 139H2; 139H2 WT; source: hybridoma culture supernatant (gift, NKI), purified (Protein G Sepharose); copies: 2 + 2
B2: recombinant (reverse-engineered) 139H2 IgG (antibody, V domains shown)
VH: QVQLQQSGAELVKPGASVKLSCKASGYTFTNYYMYWVLQRPGQGLEWIGEINPSNGGTTFNEKFKNKATLTVDKSSSTAYMQLNSLTSEDSAVYYCTRSRYGNYVNYGMDYWGQGTSVTVSS
VL: DIVMSQSPSSLAVSVGEKVTMSCKSSQSLLYSNTQKNYLAWYQQKPGQSPKLLIYWASTRESGVPDRFTGSGSGTDFTLTISSVKAENLAVYYCQQYYRYPPTFGGGTKLELK
notes: also in PDB 8P6I; standard mouse Ig gamma-1 (IGHG1) constant region, linker and Fc region, UniProt P01868.1; mouse kappa light-chain constant region (kappa light-chain backbone); Mouse IgG1, kappa; also called synthetic recombinant 139H2; recombinant 139H2; source: HEK293 cells (ImmunoPrecise Antibodies), culture supernatant, purified (HisTrap Excel); copies: 2 + 2
B3: recombinant 139H2 Fab fragment (Fab, V domains shown)
VH: QVQLQQSGAELVKPGASVKLSCKASGYTFTNYYMYWVLQRPGQGLEWIGEINPSNGGTTFNEKFKNKATLTVDKSSSTAYMQLNSLTSEDSAVYYCTRSRYGNYVNYGMDYWGQGTSVTVSS
VL: DIVMSQSPSSLAVSVGEKVTMSCKSSQSLLYSNTQKNYLAWYQQKPGQSPKLLIYWASTRESGVPDRFTGSGSGTDFTLTISSVKAENLAVYYCQQYYRYPPTFGGGTKLELK
notes: as the heavy-chain variable domain of m1 (IGHV1-53); mouse Ig gamma-1 (IGHG1) Fab constant region; as the light-chain variable domain of m1 (IGKV8-30); mouse kappa light-chain constant region, as in m1; also called monovalent Fab fragment; anti-MUC1 Fab; source: HEK293 cells (ImmunoPrecise Antibodies), culture supernatant, purified (HisTrap Excel, Superdex 200 SEC)

Assays:
Conditions in all cases: both partners purified
[1] = target: T3, MUC1 reporter construct, Tn glycans (Homo sapiens (by repeat sequence), UniProt P15941, O-glycans of Tn structure; 5 O-glycosylation sites); experiment: far-Western, overlay or dot blot; immunoblot of MUC1 reporter constructs (10 ng per well, boiled in Laemmli buffer, 10% SDS gel, PVDF); 139H2 antibodies 1:1,000 in TSMT with 1% BSA, 1 h at RT; band intensities compared with a His-tag blot
T3 construct: also called MUC1 Tn fragment; MUC1-Tn; source: engineered HEK293 cells, gift from Christian Büll (Copenhagen Center for Glycomics), in PBS
T3 sequence (P15941 whole entry, looked up, the tested form may be a part): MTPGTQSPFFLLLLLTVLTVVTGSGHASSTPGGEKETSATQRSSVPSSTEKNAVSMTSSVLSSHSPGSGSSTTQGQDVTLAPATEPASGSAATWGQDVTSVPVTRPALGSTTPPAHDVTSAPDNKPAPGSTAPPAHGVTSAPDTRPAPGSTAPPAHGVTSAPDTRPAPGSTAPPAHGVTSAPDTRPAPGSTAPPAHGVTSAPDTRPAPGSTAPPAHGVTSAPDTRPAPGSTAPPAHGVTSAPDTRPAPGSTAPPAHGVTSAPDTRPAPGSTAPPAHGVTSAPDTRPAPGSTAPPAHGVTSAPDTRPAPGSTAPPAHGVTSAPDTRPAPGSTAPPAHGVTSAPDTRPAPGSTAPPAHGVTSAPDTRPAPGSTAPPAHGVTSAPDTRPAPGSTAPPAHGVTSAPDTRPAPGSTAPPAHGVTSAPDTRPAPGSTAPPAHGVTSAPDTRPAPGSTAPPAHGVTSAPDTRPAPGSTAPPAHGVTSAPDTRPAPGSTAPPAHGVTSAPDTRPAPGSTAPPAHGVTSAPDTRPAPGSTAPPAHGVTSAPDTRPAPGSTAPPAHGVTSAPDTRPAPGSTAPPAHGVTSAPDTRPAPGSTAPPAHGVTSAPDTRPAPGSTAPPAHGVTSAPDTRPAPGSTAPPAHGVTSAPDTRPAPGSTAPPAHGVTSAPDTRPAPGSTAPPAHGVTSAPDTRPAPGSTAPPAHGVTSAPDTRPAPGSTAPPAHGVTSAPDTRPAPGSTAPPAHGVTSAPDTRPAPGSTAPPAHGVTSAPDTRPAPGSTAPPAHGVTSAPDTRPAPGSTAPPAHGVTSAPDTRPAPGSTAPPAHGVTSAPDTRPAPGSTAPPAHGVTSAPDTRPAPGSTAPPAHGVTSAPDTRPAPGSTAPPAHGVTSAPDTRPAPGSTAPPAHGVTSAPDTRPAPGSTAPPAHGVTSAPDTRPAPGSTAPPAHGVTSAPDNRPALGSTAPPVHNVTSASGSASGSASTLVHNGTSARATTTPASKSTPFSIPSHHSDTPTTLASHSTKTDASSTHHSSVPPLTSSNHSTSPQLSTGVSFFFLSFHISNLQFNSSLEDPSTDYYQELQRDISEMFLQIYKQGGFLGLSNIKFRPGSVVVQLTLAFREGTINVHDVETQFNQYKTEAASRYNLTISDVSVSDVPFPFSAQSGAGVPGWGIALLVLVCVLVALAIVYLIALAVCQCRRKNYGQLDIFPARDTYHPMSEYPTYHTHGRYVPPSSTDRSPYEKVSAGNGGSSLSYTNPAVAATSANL

[2] = target: T4, MUC1 reporter construct, WT Core 2/ST glycans (Homo sapiens (by repeat sequence), UniProt P15941, O-glycans of WT Core 2/ST structure; 5 O-glycosylation sites); experiment: as above
T4 construct: also called MUC1 WT fragment; MUC1-WT; source: engineered HEK293 cells, gift from Christian Büll (Copenhagen Center for Glycomics), in PBS
T4 sequence (P15941 whole entry, looked up, the tested form may be a part): as above

[3] = target: T5, MUC1 reporter construct, DiST glycans (Homo sapiens (by repeat sequence), UniProt P15941, O-glycans of DiST structure; 5 O-glycosylation sites); experiment: as above
T5 construct: also called MUC1 DiST fragment; MUC1-DiST; source: engineered HEK293 cells, gift from Christian Büll (Copenhagen Center for Glycomics), in PBS
T5 sequence (P15941 whole entry, looked up, the tested form may be a part): as above

[4] = target: T6, MUC1 reporter construct, STn glycans (Homo sapiens (by repeat sequence), UniProt P15941, O-glycans of STn structure; 5 O-glycosylation sites); experiment: as above
T6 construct: also called MUC1 STn fragment; MUC1-STn; source: engineered HEK293 cells, gift from Christian Büll (Copenhagen Center for Glycomics), in PBS
T6 sequence (P15941 whole entry, looked up, the tested form may be a part): as above

[5] = target: T1, synthetic MUC1 epitope peptide APDTRPAPG; experiment: crystal structure; Fab and peptide mixed 1:2.5, 3.8 mg/ml in 50 mM Tris pH 8.0, 150 mM NaCl; sitting drop at 20°C; 2.5 Å
[6] = target: T2, N-terminally biotinylated synthetic …; experiment: SPR; biotinylated peptide immobilised on a streptavidin chip (P-Strep), IBIS-MX96; 150 mM NaCl, 25 mM Hepes, 0.005% Tween-20; Fab as analyte, 10 twofold dilutions from 7.88 uM, kinetic titration without regeneration, 6-min association; equilibrium data fitted to a one-site (Langmuir) model

| Binder | binding result [1] | binding result [2] | binding result [3] | binding result [4] | binding result [5] | Kd [6] [µM] |
| --- | --- | --- | --- | --- | --- | --- |
| B1 | binds | binds | binds | binds |  |  |
| B2 | binds | binds | binds | binds |  |  |
| B3 |  |  |  |  | binds | 4.5 |
